For data set [1], the target named is wild type human growth hormone, P01241.
Sequence of wild type human growth hormone, P01241 (P01241 27-217): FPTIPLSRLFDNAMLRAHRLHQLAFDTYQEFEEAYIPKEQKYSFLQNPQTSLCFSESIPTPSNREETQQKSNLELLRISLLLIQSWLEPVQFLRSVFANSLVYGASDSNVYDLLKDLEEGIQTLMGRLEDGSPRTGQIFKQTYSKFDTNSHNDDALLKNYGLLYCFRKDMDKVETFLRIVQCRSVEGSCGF

Sequence of hGHQ141N, P01241 (P01241 27-217 Q167N): as the sequence (P01241 27-217) above, with Q141N counted along it
Sequence of hGHQ40N, P01241 (P01241 27-217 Q66N): as the sequence (P01241 27-217) above, with Q40N counted along it

B1: AlaPro-mTGase from S. mobaraensis (protein)
chain: APDSDDRVTPPAEPLDRMPDPYRPSYGRAETVVNNYIRKWQQVYSHRDGRKQQMTEEQREWLSYGCVGVTWVNSGQYPTNRLAFASFDEDRFKNELKNGRPRSGETRAEFEGRVAKESFDEEKGFQRAREVASVMNRALENAHDESAYLDNLKKELANGNDALRNEDARSPFYSALRNTPSFKERNGGNHDPSRMKAVIYSKHFWSGQDRSSSADKRKYGDPDAFRPAPGTGLVDMSRDRNIPRSPTSPGEGFVNFDYGWFGAQTEADADKTVWTHGNHYHAPNGSLGAMHVYESKFRNWSEGYSDFDRGAYVITFIPKSWNTAPDKVKQGWP
With B1, the Activity towards hGHQ141N (RFU/sec/µg) with hGHQ141N, P01241 amounted to 1.56 RFU/sec/µg. This protein gave an Activity towards hGHQ40N (RFU/sec/µg) with hGHQ40N, P01241 of 5.05 RFU/sec/µg. Further, in data set [1], the “conversion rate, CE, reaction time 30 minutes” value was “conversion rate=32%”; the hGH conv. rate (%) was found to be 33%; the hGH conv. rate (%), reference of the separate experiment worked out at 39%.

B2: GlyPro-mTGase from S. mobaraensis (protein)
chain: GPDSDDRVTPPAEPLDRMPDPYRPSYGRAETVVNNYIRKWQQVYSHRDGRKQQMTEEQREWLSYGCVGVTWVNSGQYPTNRLAFASFDEDRFKNELKNGRPRSGETRAEFEGRVAKESFDEEKGFQRAREVASVMNRALENAHDESAYLDNLKKELANGNDALRNEDARSPFYSALRNTPSFKERNGGNHDPSRMKAVIYSKHFWSGQDRSSSADKRKYGDPDAFRPAPGTGLVDMSRDRNIPRSPTSPGEGFVNFDYGWFGAQTEADADKTVWTHGNHYHAPNGSLGAMHVYESKFRNWSEGYSDFDRGAYVITFIPKSWNTAPDKVKQGWP
For B2, the Activity towards hGHQ141N (RFU/sec/µg) with hGHQ141N, P01241 was found to be 1.13 RFU/sec/µg. Further, the Activity towards hGHQ40N (RFU/sec/µg) with hGHQ40N, P01241 is 4.28 RFU/sec/µg.

B3: mature mTGase from Streptoverticillium ladakanum (protein)
chain: DSDERVTPPAEPLDRMPDPYRPSYGRAETIVNNYIRKWQQVYSHRDGRKQQMTEEQREWLSYGCVGVTWVNSGQYPTNRLAFAFFDEDKYKNELKNGRPRSGETRAEFEGRVAKDSFDEAKGFQRARDVASVMNKALENAHDEGAYLDNLKKELANGNDALRNEDARSPFYSALRNTPSFKDRNGGNHDPSKMKAVIYSKHFWSGQDRSGSSDKRKYGDPEAFRPDRGTGLVDMSRDRNIPRSPTSPGESFVNFDYGWFGAQTEADADKTVWTHGNHYHAPNGSLGAMHVYESKFRNWSDGYSDFDRGAYVVTFVPKSWNTAPDKVKQGWP
In the case of B3, in the data set with hGHQ141N, P01241, the Activity towards hGHQ141N (RFU/sec/µg) amounted to 0.63 RFU/sec/µg; the “HPLC peak area of product-Q40” value was “area 127”; the Q141N (remaining substrate, normalized to 100) (normalized to 100) worked out at 90; the product-Q40 (normalized to 100) (normalized to 100) came out at 10. Also, in the data set with hGHQ40N, P01241, the Activity towards hGHQ40N (RFU/sec/µg) was determined as 3.55 RFU/sec/µg; the “HPLC peak area of product-Q141” value is listed as “area 1238”; the Q40N (remaining substrate, normalized to 100) (normalized to 100) stood at 23; the product-Q141 (normalized to 100) (normalized to 100) was 77.

B4: AlaPro-mTGase from S. ladakanum (protein)
chain: APDSDERVTPPAEPLDRMPDPYRPSYGRAETIVNNYIRKWQQVYSHRDGRKQQMTEEQREWLSYGCVGVTWVNSGQYPTNRLAFAFFDEDKYKNELKNGRPRSGETRAEFEGRVAKDSFDEAKGFQRARDVASVMNKALENAHDEGAYLDNLKKELANGNDALRNEDARSPFYSALRNTPSFKDRNGGNHDPSKMKAVIYSKHFWSGQDRSGSSDKRKYGDPEAFRPDRGTGLVDMSRDRNIPRSPTSPGESFVNFDYGWFGAQTEADADKTVWTHGNHYHAPNGSLGAMHVYESKFRNWSDGYSDFDRGAYVVTFVPKSWNTAPDKVKQGWP
For B4, the Activity towards hGHQ141N (RFU/sec/µg) with hGHQ141N, P01241 is 1.02 RFU/sec/µg. The protein further yielded an Activity towards hGHQ40N (RFU/sec/µg) with hGHQ40N, P01241 of 6.91 RFU/sec/µg.

B5: GlyPro-mTGase_Y75F from S. ladakanum (protein)
chain: GPDSDERVTPPAEPLDRMPDPYRPSYGRAETIVNNYIRKWQQVYSHRDGRKQQMTEEQREWLSYGCVGVTWVNSGQFPTNRLAFAFFDEDKYKNELKNGRPRSGETRAEFEGRVAKDSFDEAKGFQRARDVASVMNKALENAHDEGAYLDNLKKELANGNDALRNEDARSPFYSALRNTPSFKDRNGGNHDPSKMKAVIYSKHFWSGQDRSGSSDKRKYGDPEAFRPDRGTGLVDMSRDRNIPRSPTSPGESFVNFDYGWFGAQTEADADKTVWTHGNHYHAPNGSLGAMHVYESKFRNWSDGYSDFDRGAYVVTFVPKSWNTAPDKVKQGWP
For the protein B5, in data set [1], the hGH conv. rate (%) came to 41% and the “hGH conversion rate, CE, reaction time 75 m” value is “hGH conversion rate=33%”.

B6: GlyPro-mTGase from S. ladakanum (protein)
chain: GPDSDERVTPPAEPLDRMPDPYRPSYGRAETIVNNYIRKWQQVYSHRDGRKQQMTEEQREWLSYGCVGVTWVNSGQYPTNRLAFAFFDEDKYKNELKNGRPRSGETRAEFEGRVAKDSFDEAKGFQRARDVASVMNKALENAHDEGAYLDNLKKELANGNDALRNEDARSPFYSALRNTPSFKDRNGGNHDPSKMKAVIYSKHFWSGQDRSGSSDKRKYGDPEAFRPDRGTGLVDMSRDRNIPRSPTSPGESFVNFDYGWFGAQTEADADKTVWTHGNHYHAPNGSLGAMHVYESKFRNWSDGYSDFDRGAYVVTFVPKSWNTAPDKVKQGWP
Take B6: the Activity towards hGHQ141N (RFU/sec/µg) in the data set with hGHQ141N, P01241 worked out at 0.48 RFU/sec/µg. Further, the Activity towards hGHQ40N (RFU/sec/µg) with hGHQ40N, P01241 was 4.25 RFU/sec/µg. This protein yielded a hGH conv. rate (%) in data set [1] of 55%.

B7: GlyPro-mTGase_Y62H_Y75F from S. ladakanum (protein)
chain: GPDSDERVTPPAEPLDRMPDPYRPSYGRAETIVNNYIRKWQQVYSHRDGRKQQMTEEQREWLSHGCVGVTWVNSGQFPTNRLAFAFFDEDKYKNELKNGRPRSGETRAEFEGRVAKDSFDEAKGFQRARDVASVMNKALENAHDEGAYLDNLKKELANGNDALRNEDARSPFYSALRNTPSFKDRNGGNHDPSKMKAVIYSKHFWSGQDRSGSSDKRKYGDPEAFRPDRGTGLVDMSRDRNIPRSPTSPGESFVNFDYGWFGAQTEADADKTVWTHGNHYHAPNGSLGAMHVYESKFRNWSDGYSDFDRGAYVVTFVPKSWNTAPDKVTQGWP
In data set [1], B7 gave an RS (relative selectivity), separate experiment of 7.6; a Selectivity (Q141/Q40), CE, separate experiment of 76.5; a hGH conv. rate (%) of 49.4%; a hGH conv. rate (%), separate experiment of 38.1%.

B8: GlyPro-mTGase_Y62H_Y75N from S. ladakanum (protein)
chain: GPDSDERVTPPAEPLDRMPDPYRPSYGRAETIVNNYIRKWQQVYSHRDGRKQQMTEEQREWLSHGCVGVTWVNSGQNPTNRLAFAFFDEDKYKNELKNGRPRSGETRAEFEGRVAKDSFDEAKGFQRARDVASVMNKALENAHDEGAYLDNLKKELANGNDALRNEDARSPFYSALRNTPSFKDRNGGNHDPSKMKAVIYSKHFWSGQDRSGSSDKRKYGDPEAFRPDRGTGLVDMSRDRNIPRSPTSPGESFVNFDYGWFGAQTEADADKTVWTHGNHYHAPNGSLGAMHVYESKFRNWSDGYSDFDRGAYVVTFVPKSWNTAPDKVKQGWP
For the protein B8, the hGH conv. rate (%) in data set [1] came to 38%.

B9: GlyPro-mTGase_Y75N from S. ladakanum (protein)
chain: GPDSDERVTPPAEPLDRMPDPYRPSYGRAETIVNNYIRKWQQVYSHRDGRKQQMTEEQREWLSYGCVGVTWVNSGQNPTNRLAFAFFDEDKYKNELKNGRPRSGETRAEFEGRVAKDSFDEAKGFQRARDVASVMNKALENAHDEGAYLDNLKKELANGNDALRNEDARSPFYSALRNTPSFKDRNGGNHDPSKMKAVIYSKHFWSGQDRSGSSDKRKYGDPEAFRPDRGTGLVDMSRDRNIPRSPTSPGESFVNFDYGWFGAQTEADADKTVWTHGNHYHAPNGSLGAMHVYESKFRNWSDGYSDFDRGAYVVTFVPKSWNTAPDKVKQGWP
For the protein B9, in data set [1], the hGH conv. rate (%) is 44% and the “hGH conversion rate, CE, reaction time 90 m” value was “hGH conversion rate=50%”.

B10: mTGase from Streptomyces mobaraensis (protein)
chain: DSDDRVTPPAEPLDRMPDPYRPSYGRAETVVNNYIRKWQQVYSHRDGRKQQMTEEQREWLSYGCVGVTWVNSGQYPTNRLAFASFDEDRFKNELKNGRPRSGETRAEFEGRVAKESFDEEKGFQRAREVASVMNRALENAHDESAYLDNLKKELANGNDALRNEDARSPFYSALRNTPSFKERNGGNHDPSRMKAVIYSKHFWSGQDRSSSADKRKYGDPDAFRPAPGTGLVDMSRDRNIPRSPTSPGEGFVNFDYGWFGAQTEADADKTVWTHGNHYHAPNGSLGAMHVYESKFRNWSEGYSDFDRGAYVITFIPKSWNTAPDKVKQGWP
For the protein B10, in the data set with hGHQ141N, P01241, the Activity towards hGHQ141N (RFU/sec/µg) is 0.98 RFU/sec/µg; the “HPLC peak area of product-Q40” value is reported as “area 296”; the Q141N (remaining substrate, normalized to 100) (normalized to 100) came to 81; the product-Q40 (normalized to 100) (normalized to 100) is 19. Also, in the data set with hGHQ40N, P01241, the Activity towards hGHQ40N (RFU/sec/µg) turned out to be 3.35 RFU/sec/µg; the “HPLC peak area of product-Q141” value is given as “area 1283”; the Q40N (remaining substrate, normalized to 100) (normalized to 100) came out at 29; the product-Q141 (normalized to 100) (normalized to 100) was 71.

B11: Met-mTGase from S. ladakanum (protein)
chain: MDSDERVTPPAEPLDRMPDPYRPSYGRAETIVNNYIRKWQQVYSHRDGRKQQMTEEQREWLSYGCVGVTWVNSGQYPTNRLAFAFFDEDKYKNELKNGRPRSGETRAEFEGRVAKDSFDEAKGFQRARDVASVMNKALENAHDEGAYLDNLKKELANGNDALRNEDARSPFYSALRNTPSFKDRNGGNHDPSKMKAVIYSKHFWSGQDRSGSSDKRKYGDPEAFRPDRGTGLVDMSRDRNIPRSPTSPGESFVNFDYGWFGAQTEADADKTVWTHGNHYHAPNGSLGAMHVYESKFRNWSDGYSDFDRGAYVVTFVPKSWNTAPDKVKQGWP
For the protein B11, in the data set with hGHQ141N, P01241, the Activity towards hGHQ141N (RFU/sec/µg) came out at 0.8 RFU/sec/µg. The protein also came in with an Activity towards hGHQ40N (RFU/sec/µg) with hGHQ40N, P01241 of 4.74 RFU/sec/µg.

B12: Met-mTGase from S. mobaraensis (protein)
chain: MDSDDRVTPPAEPLDRMPDPYRPSYGRAETVVNNYIRKWQQVYSHRDGRKQQMTEEQREWLSYGCVGVTWVNSGQYPTNRLAFASFDEDRFKNELKNGRPRSGETRAEFEGRVAKESFDEEKGFQRAREVASVMNRALENAHDESAYLDNLKKELANGNDALRNEDARSPFYSALRNTPSFKERNGGNHDPSRMKAVIYSKHFWSGQDRSSSADKRKYGDPDAFRPAPGTGLVDMSRDRNIPRSPTSPGEGFVNFDYGWFGAQTEADADKTVWTHGNHYHAPNGSLGAMHVYESKFRNWSEGYSDFDRGAYVITFIPKSWNTAPDKVKQGWP
B12 displayed an Activity towards hGHQ141N (RFU/sec/µg) in the data set with hGHQ141N, P01241 of 1.24 RFU/sec/µg. This protein also gave an Activity towards hGHQ40N (RFU/sec/µg) with hGHQ40N, P01241 of 5.44 RFU/sec/µg.

For the origin of these results see patent publication US20090318349.
